From patent publication US12421510B2, “Peptide, a complex and a method for treating cancer” (TECHNION RESEARCH & DEVELOPMENT FOUNDATION LIMITED, priority 2018, dated 2025)

T1: p105 (Homo sapiens, UniProt P19838)
T1 sequence (P19838 1-968): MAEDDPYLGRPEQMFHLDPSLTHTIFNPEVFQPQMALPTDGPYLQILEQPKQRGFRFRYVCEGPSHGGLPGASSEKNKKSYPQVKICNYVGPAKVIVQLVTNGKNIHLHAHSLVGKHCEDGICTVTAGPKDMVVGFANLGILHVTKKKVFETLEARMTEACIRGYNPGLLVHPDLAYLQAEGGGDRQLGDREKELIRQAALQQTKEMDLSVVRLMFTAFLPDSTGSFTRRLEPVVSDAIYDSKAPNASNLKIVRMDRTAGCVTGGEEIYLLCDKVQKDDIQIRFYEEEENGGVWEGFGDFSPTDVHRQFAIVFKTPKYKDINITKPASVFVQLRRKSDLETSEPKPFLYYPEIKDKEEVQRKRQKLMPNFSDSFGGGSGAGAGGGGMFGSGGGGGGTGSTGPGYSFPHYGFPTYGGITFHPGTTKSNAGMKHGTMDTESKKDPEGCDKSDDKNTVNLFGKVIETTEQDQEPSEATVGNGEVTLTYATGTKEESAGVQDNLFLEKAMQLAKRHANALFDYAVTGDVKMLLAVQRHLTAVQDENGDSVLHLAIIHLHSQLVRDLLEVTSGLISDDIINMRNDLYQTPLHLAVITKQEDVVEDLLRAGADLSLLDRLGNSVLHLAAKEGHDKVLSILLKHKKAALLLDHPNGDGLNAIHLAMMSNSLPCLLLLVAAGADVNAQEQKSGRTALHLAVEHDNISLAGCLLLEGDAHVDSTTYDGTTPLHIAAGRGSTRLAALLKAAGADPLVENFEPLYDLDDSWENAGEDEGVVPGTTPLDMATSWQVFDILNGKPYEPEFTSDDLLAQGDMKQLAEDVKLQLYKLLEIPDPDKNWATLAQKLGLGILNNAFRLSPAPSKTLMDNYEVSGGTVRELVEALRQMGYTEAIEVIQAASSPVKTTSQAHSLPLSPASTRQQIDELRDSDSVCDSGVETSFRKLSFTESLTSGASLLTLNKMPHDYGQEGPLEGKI

B1: KPC1Δ1-973: KPC1 species that lacks the amino acids 1-973 (protein, UniProt Q5XPI4 974-1314, looked up, fragment)
chain: WRGCGFGYRYTRLPHLLKTKLEDANLPSLQKPCPSTLLQQHMADLLQQGPDVAPSFLNSVLNQLNWAFSEFIGMIQEIQQAAERLERNFVDSRQLKVCATCFDLSVSLLRVLEMTITLVPEIFLDWTRPTSEMLLRRLAQLLNQVLNRVTAERNLFDRVVTLRLPGLESVDHYPILVAVTGILVQLLVRGPASEREQATSVLLADPCFQLRSICYLLGQPEPPAPGTALPAPDRKRFSLQSYADYISADELAQVEQMLAHLTSASAQAAAASLPTSEEDLCPICYAHPISAVFQPCGHKSCKACINQHLMNNKDCFFCKTTIVSVEDWEKGANTSTTSSAA
B2: KPC1ΔCC: KPC1 species that lacks the amino acids 1041-1061 (coiled coil domain) (protein)
chain: MASKGAGMSFSRKSYRLTSDAEKSRVTGIVQEKLLNDYLNRIFSSSEHAPPAATSRKPLNFQNLPEHLDQLLQVDNEEEESQGQVEGRLGPSTVVLDHTGGFEGLLLVDDDLLGVIGHSNFGTIRSTTCVYKGKWLYEVLISSQGLMQIGWCTISCRFNQEEGVGDTHNSYAYDGNRVRKWNVTTTNYGKAWAAGDIVSCLIDLDDGTLSFCLNGVSLGTAFENLSRGLGMAYFPAISLSFKESVAFNFGSRPLRYPVAGYRPLQDPPSADLVRAQRLLGCFRAVLSVELDPVEGRLLDKESSKWRLRGQPTVLLTLAHIFHHFAPLLRKVYLVEAVLMSFLLGIVEKGTPTQAQSVVHQVLDLLWLFMEDYEVQDCLKQLMMSLLRLYRFSPIVPDLGLQIHYLRLTIAILRHEKSRKFLLSNVLFDVLRSVVFFYIKSPLRVEEAGLQELIPTTWWPHCSSREGKESTEMKEETAEERLRRRAYERGCQRLRKRIEVVEELQVQILKLLLDNKDDNGGEASRYIFLTKFRKFLQENASGRGNMPMLCPPEYMVCFLHRLISALRYYWDEYKASNPHASFSEEAYIPPQVFYNGKVDYFDLQRLGGLLSHLRKTLKDDLASKANIVIDPLELQSTAMDDLDEDEEPAPAMAQRPMQALAVGGPLPLPRPGWLSSPTLGRANRFLSTAAVSLMTPRRPLSTSEKVKVRTLSVEQRTREDIEGSHWNEGLLLGRPPEEPEQPLTENSLLEVLDGAVMMYNLSVHQQLGKMVGVSDDVNEYAMALRDTEDKLRRCPKRRKDILAELTKSQKVFSEKLDHLSRRLAWVHATVYSQEKMLDIYWLLRVCLRTIEHGDRTGSLFAFMPEFYLSVAINSYSALKNYFGPVHSMEELPGYEETLTRLAAILAKHFADARIVGTDIRDSLMQALASYVCYPHSLRAVERIPEEQRIAMVRNLLAPYEQRPWAQTNWILVRLWRGCGFGYRYTRLPHLLKTKLEDANLPSLQKPCPSTLLQQHMADLLQQGPDVAPSFLNSVLNQLNWAFVDSRQLKVCATCFDLSVSLLRVLEMTITLVPEIFLDWTRPTSEMLLRRLAQLLNQVLNRVTAERNLFDRVVTLRLPGLESVDHYPILVAVTGILVQLLVRGPASEREQATSVLLADPCFQLRSICYLLGQPEPPAPGTALPAPDRKRFSLQSYADYISADELAQVEQMLAHLTSASAQAAAASLPTSEEDLCPICYAHPISAVFQPCGHKSCKACINQHLMNNKDCFFCKTTIVSVEDWEKGANTSTTSSAA
B3: KPC1Δ1-967: KPC1 species that lacks amino acids 1-967, SEQ ID NO: 5 (protein)
chain: WILVRLWRGCGFGYRYTRLPHLLKTKLEDANLPSLQKPCPSTLLQQHMADLLQQGPDVAPSFLNSVLNQLNWAFSEFIGMIQEIQQAAERLERNFVDSRQLKVCATCFDLSVSLLRVLEMTITLVPEIFLDWTRPTSEMLLRRLAQLLNQVLNRVTAERNLFDRVVTLRLPGLESVDHYPILVAVTGILVQLLVRGPASEREQATSVLLADPCFQLRSICYLLGQPEPPAPGTALPAPDRKRFSLQSYADYISADELAQVEQMLAHLTSASAQAAAASLPTSEEDLCPICYAHPISAVFQPCGHKSCKACINQHLMNNKDCFFCKTTIVSVEDWEKGANTSTTSSAA

Molecular target: T1, p105
Experiment: Co-immunoprecipitation (Co-IP) of KPC1 species with p105-HA from transfected HEK293T cells
Type: binding
Parameters: HA; expressed in transfected cells; host or cells: HEK293T
Conditions: anti-FLAG immunoprecipitation, anti-NF-κB1 western blot
Text: FIG. 1B is a western blot showing the following: HEK293T cells were transfected with cDNAs coding for p105-HA (lanes 1-6), along with the different KPC1 species as following: W.T KPC1 (lane 1), KPC1Δ969-1314 (lane 2), KPC1Δ1-438 & 1039-1314 (lane 3), KPC1Δ1-967 (lane 4) and KPC1Δ1-1042 (lane 5). Lane 6 was transfected with an empty vector. KPC1 species were immunoprecipitated using immobilized FLAG antibodies, resolved by SDS-page, and NF-κB1 and KPC1 proteins were visualized by anti-NF-κB1 (FIG. 1B (upper)) and anti-FLAG (FIG. 1B (bottom)) antibodies, respectively. 10% of the total cell lysate was analyzed for the expression of p105-HA.
FIG. 2B is a western blot. HEK293T cells were transfected with cDNAs coding for p105-HA (lanes 1-7), along with different KPC1 species as following: WT KPC1 (lane 1), KPC1Δ1-967 (lane 2), KPC1Δ967-1043 (lane 3), KPC1Δ1-973 (lane 4), KPC1Δ1-1017 (lane 5) and KPC1ΔCC domain (lane 6). Lane 7 represents cells that were transfected with empty vector. KPC1 species were immunoprecipitated using immobilized FLAG antibodies, resolved by SDS-page. NF-κB1 and KPC1 proteins were visualized with anti-NF-κB1 (FIG. 2B (i)) and anti-FLAG (FIG. 2B (ii)) antibodies, respectively. 10% of the total cell lysate was analyzed for the expression of p105-HA. FIGS. 3A and 3B: FIG. 3A is a schematic representation of KPC1 species used in the experiment shown in FIG. 3B that was directed to evaluating the region of KPC1 that is responsible for the interaction with p105.
FIG. 3B is a western blot. HEK293T cells were transfected with cDNAs coding for p105-HA (lanes 1-12), along with different KPC1 species as following: KPC1-FLAG (lane 1), WILVRLW-KPC1 Δ 1-1253 (SEQ ID NO: 8) (lane 2), ILVRLW-KPC1 Δ 1-1253 (SEQ ID NO: 10) (lane 3), LVRLW-KPC1 Δ 1-1253 (SEQ ID NO: 11) (lane 4), VRLW-KPC1 Δ 1-1253 (lane 5) (SEQ ID NO: 12), RLW-KPC1 Δ 1-1253 (lane 6) SEQ ID NO:13), KPC1 Δ 1-1253 (lane 7), WILVRL-KPC1 Δ 1-1253 (lane 8) (SEQ ID NO: 14), WILVR-KPC1 Δ 1-1253 (SEQ ID NO: 15) (lane 9), WILV-KPC1 Δ 1-1253 (SEQ ID NO: 16) (lane 10), WIL-KPC1 Δ 1-1253 (SEQ ID NO: 17 (lane 11). Lane 12 represents cells that were transfected with empty vector. KPC1 species were immunoprecipitated using immobilized FLAG antibodies, resolved by SDS-page. NF-κB1 and KPC1 proteins were visualized by anti-NF-κB1 (FIG. 3B, (i, ii) and anti-FLAG (FIG. 3B, (iii) antibodies, respectively. 10% of the total cell lysate was analyzed for the expression of p105-HA (FIG. 3B, (ii)).
HEK293T cells were transiently transfected with the various KPC1 species along with p105-HA using the j etPEI reagent. 48 hours after transfection, the cells were harvested and lysed with RIPA buffer [150 mM NaCl, 0.5% sodium deoxycholate, 50 mM Tris-HCl (pH 8.0), 0.1% SDS, and 1% NP-40, supplemented with freshly added protease inhibitors mixture]. KPC1 species proteins were immunoprecipitated with immobilized anti-FLAG, with subsequent washing of the beads five times with RIPA buffer. The immunoprecipitated proteins were resolved by SDS-PAGE (10%, FIGS. 1A, 1B, 2A and 2B, with a gel gradient, of 4-20%; FIGS. 3A and 3B), and blotted onto nitrocellulose (FIGS. 1A, 1B, 2A and 2B) or PVDF (FIGS. 3A and 3B) membranes. p105 and KPC1 species were visualized using anti-NF-κB1 or anti-FLAG antibodies, respectively.
Identification of the region of KPC1 that is responsible for the interaction with p105. In order to identify the region of KPC1 that is responsible for the interaction with p105, several truncated segments of the DNA sequence of the KPC1 protein were cloned. The truncated segments were inserted into the pCAGGS expression vector to analyze their interaction with p105 by co-immunoprecipitation (Co-IP) from cells. HEK 293T cells were transfected with cDNAs coding for p105-HA, along with different fragments of KPC1 (FIG. 1A). Species of KPC1 were immunoprecipitated using an immobilized anti-Flag antibody. […]

Molecule | interaction with p105 (Co-IP)
B1 | the interaction between these two proteins was abrogated
B2 | An interaction
B3 | an interaction was observed
